Test results published in the DeepSol protein solubility set.

Assay: soluble on expression in E. coli; label from the status in PepcDB or PDB records

Sequence	soluble on expression in E. coli
MENQTTDLENMVGASRAGLTRRGFISAGALCGAAMFLGGNILSRTVLANSVSAASGALLGFESIPTATADSISLPKGYTSSVLISWGQPLQANGPAFDPSGKGTAQAQEVQFGDNNDGMCLFPMPGHKDRALMAINNEYTNYRYLFDHGKEPQSAEEVQKALAAEGVSVIEVQQKQGKWQFVQDSRYNRRVHGNTPIKLSGPAAGHDWLKTDADKGGTHALGTFQNCSSGQTPWGTYLTCEENFTDCFGSSNPEQKFDAGMKRYGVVAASKEINWHPHDPRFDVAKNPNEVNRHGWVVEIDPFDPKSTPVKRTALGRFKHENAAFTQTKGGRAVVYMGDDERGEFIYKFISRDKIDHQNPKANRDLLDHGTLYVAQFDAGDSNPDHPKGKGQWIELTHGKNGLDAAASFNNQAEVLIHARLAASVVKATRMDRPEWIVVSPKDGQVYCTLTNNIKRGDEGQPVGGPNPRAKNQYGQILRWSEEGSNASAMAFDWDLFVVAGNPAVHAGTPQAGSSNINAQNMFNSPDGLSFDEAGRLWIQTDGDSSNKGDFAGMGNNQMLCADPASGEIRRFLVGPVGCEITGISFAPDYKTMFIGIQHPGENGGSTFPEHLPNGKPRSSVMVITREDGGVIGALEHHHHHH	soluble
MENGHLAKVDLTKKIESKSKYNKKLEKYQRRLLALQQILKEEKIAVMLVMEGWDAAGKGGAIKRVTEHLDPRGFQVDPIGAPAPHEKRYHYLQRFWRKIPQYGQITIFDRSWYGRVLVERVEGFATKEEWMRAYDEINDFEKLLTDDHYIIGKFFYHISKEEQLKRFKDREKNPLKRWKITDEDWRNREKWDEYVEAMEDMFEKTSKPNAKWHIIESNDKLYARVKTLKIIISFIEDYFLEHGIELPSYYYEMKEDIEVLQDVGVKE	not soluble
ILTAGPTVDGRNIEQSVIDDIAETYDPKRYNARINEEHWSWSDKFGSVLSVEKRDDQLFAVLKPNSLLLSTIEKGQLLHTSCEIRANFQGTGKSYLTGLALTDEPASVGTTEMHLSAKEKNKDKSYFSSGATISKDDLSNNIDVDVQEDRKFLSRLKQLLSLGEPDKTQSLEESEDMNEELKELLQAQTAAVTALTAQVTSLAATLNKEESAPVEEENNETELAEKVDALSTKLDDVVTKLSNITDEPNRNLAGVDGDTEY	not soluble
GMGNIYQITVEEKAEHQRTLSFEFSLHDDLFKLLEKVDGKMDMTPEQTQAFMVGLKLFGEVMMQQRKHPLFKEFSAPFRAFMMNLKKQ	soluble
MAHHHHHHMGDDCETELVEVFGFISSGREDVRKMAVQGLAQQSKDNKELFALIASSAHGPRCIDVLLQFLHAGSVALLGDVLTVLINCAADGTCTEVLVTQKVVRRAMRLIDSVEASDHPQSLQRGLEEMTLMLLSNLTASHVSAVDDLLQVTDEDLRGFYLGKLLTYYTRFTVDDGCSVEVAVAGEQQQEDGGDDNKKLSEGDAVRSNSGGNKSEELNKTVPRDLQRWILQILLNVTRVADGQELLLEDDDWLMALSDCLSSLNPRHRLLAAQCFRNCSFQRERHPGILRSRCLRVCVERLSDGAEHIGEIEMLLAEITANLMQTEAGIGLLEELNAKKHLQASVTAGKVQADTCKFLNEHVLPLLDDIVDAYVMTSGDELD	not soluble
MDRTLYQKQMLDLVKDSKLATKLENSIFKWTNDYMETNITPPFMFENFYQDKFSDIIKHLNIKNNPYLLEAIKTGKIKPENIAFLKPEEIYPEKFEAILNKRKLEKAIKDNQATTDAFKCPRCKKRKAKIDQKQIRAGDEPMTTFVTCVECGNVQKF	not soluble
MSLMSNDRKVTEIENSPVTEVRPEEHAWYPDDSALAAPPAATPAAISDQLPSDRYLNRELSWLDFNARVLALAADKSMPLLERAKFLAIFASNLDEFYMVRVAGLKRRDEMGLSVRSADGLTPREQLGRIGEQTQQLASRHARVFLDSVLPALGEEGIYIVTWADLDQAERDRLSTYFNEQVFPVLTPLAVDPAHPFPFVSGLSLNLAVTVRQPEDGTQHFARVKVPDNVDRFVELAAREASEEAAGTEGRTALRFLPMEELIAAFLPVLFPGMEIVEHHAFRITRNADFEVEEDRDEDLLQALERELARRRFGSPVRLEIADDMTESMLELLLRELDVHPGDVIEVPGLLDLSSLWQIYAVDRPTLKDRTFVPATHPAFAERETPKSIFATLREGDVLVHHPYDSFSTSVQRFIEQAAADPNVLAIKQTLYRTSGDSPIVRALIDAAEAGKQVVALVEIKARFDEQANIAWARALEQAGVHVAYGLVGLKTHCKTALVVRREGPTIRRYCHVGTGNYNSKTARLYEDVGLLTAAPDIGADLTDLFNSLTGYSRKLSYRNLLVAPHGIRAGIIDRVEREVAAHRAEGAHNGKGRIRLKMNALVDEQVIDALYRASRAGVRIEVVVRGICALRPGAQGISENIIVRSILGRFLEHSRILHFRAIDEFWIGSADMMHRNLDRRVEVMAQVKNPRLTAQLDELFESALDPCTRCWELGPDGQWTASPQEGHSVRDHQESLMERHRSEGHHHHHH	soluble
MSTGANLLVMNDTCKSNRWWKTKQEKKHSEIKKVKTLKSTWDKKMELKAKKDMVKRVQDNIREKQVQERQEKKERKVEQEKRRLENERKAEIVQKITKIHKLKKTKKRQLRSIQMRDTTQVTK	not soluble
MGSDKIHHHHHHMSERLDENFSRAIDLMLACTGKIIISGMGKSGIIGQKIAATLSSTGTTAIFLHPAEAAHGDLGVVSEGDTVICLSKSGMTEELNFILPALRERKATIIAFTGNPRSYLAMNADVVLDTGVEQEACPYDLAPTSSTTAMLAMGDALAICLMKKKNFTDQEFALTHPKGSLGKQLTMRVGDVMATGDALPVVSEDAMLSDLILEMTSKRYGVSGVVDAEGKLTGIFTDGDLRRLVQTGESFLDKKAVEVMTPNPKTVAPDMKAKACLELLETHRITQLMVCDEKRCPVGIVHIHDLVTLGL	not soluble
MKCSNEKVVNQEQSYESMDKFLDGVQEVAYIHSNQNVIGSSKAENHMSRWAAHDVFELKQFSQLPANIAVCSSKTYKEKVDADTLPHTKKGQQPSEGSISLPLYISNPVNQKKKKVYHTNQTTFIIGETPKGIRRKQFEEMASYFNSSSVNEFAKHITNATSEERQKMLRDFYASQYPEVKEFFVDSVSQFNNSSFEKGEQRTRKKSDKRESLIKPRLSDSETLSFKDSTNKISQVCSLKTYKRKSVKFQNHISYREEVFFNDAETKKSPVSSTQEIDSGKNSQASEDTVTSRSLNSESETRERRLENTMKDQQDLTRTGISRKEPLLKLENKKIENPVLENTSVISLLGDTSILDDLFKSHGNSPTQLPKKVLSGPMEKAKQRPKDFWDILNEQNDESLSKLTDLAVIETLCEKAPLAAPFKRREEPATSLWKSNEKFLWKKFSPSDTDENATNTQSTT	not soluble
MKFHVIDRENWNREQYFEHYLELKCTFSMTVNVDITLLIKKVHQKGIKFYPTFIYIISRIINKHKEFRTCFNDEGVLGYWEEMIPSYTIFHKDDKSFSSIWTDYSSDFRIFYKNYEEDMRCYASVHGLLTKENIPPNIFPISGIPWTSFTGFNLNINNDGDFLLPIITCGKYFNEENKIMLPVSLQVHHSVCDGYHVSRFIEDLQELSNSCNEWLK	not soluble
MKSERILVVKTEDFLKEFGEFEGFMRVNFEDFLNFLDQYGFFRERDEAEYDETTKQVIPYVVIMDGDRVLITKRTTKQSEKRLHNLYSLGIGGHVREGDGATPREAFLKGLEREVNEEVDVSLRELEFLGLINSSTTEVSRVHLGALFLGRGKFFSVKEKDLFEWELIKLEELEKFSGVMEGWSKISAAVLLNLFLTQN	not soluble
MRILPQIMAAIVLASPALSQCGGGFSSFVDGLKAEAVSMGHDAALVDRFFQGAAQDAKVLKADRAQGVFQKPFVEFSRRLISQNRLDTGKAMGRKYDAVFDRIEAEYGVSRGVLLAFWAFETDFGGFQGDFNTRNALITLAHDCRRPELFRPQIFAAIELYSHGDFDPARTTGAWAGEIGMVQMLPRDILENGVDGDGDGHVTLKTSAPDALMSGARMLSHLGWRAGEPWLQEVTLPAQMDWSLSGPGKPRSAGEWQAMGVRPRAGDLADLPASLILPQGHKGPAFLAYPNFDVYFEWNQSFVYVLTAAYFGTRLEGGQVYDAGNPAPGLDGAGMKALQQKLQARGHDVGKIDGILGAGTRAAVQAEQARLGLPADAWPTAELLNRL	not soluble
MKYKIFASTTPQTEPVLNKLRAVLKTWQAVENGYEYVFVLGGDGFFVSTLANYNCDSCKVVGINTGHIGFYTSFNGDDLDENFISKLTSFEFKKINLLEVKTKNHSFLVLNELAVYTNTAYPINIFIDDNHWESYRGSGLLIGPRTGSTALAKSAKGAVIFPNVDVVQIIELNPLLHPNQITIQSPIILPMQTKVEFRIKKAFKAEQFPNFYADGIKLDLKNEDTSISFQLVLSRSMFHASLKTKDFIDKLKSTFIKQSLEHHHHHH	soluble
AHHHHHHGSRVLKSEGVSMLNTELLTTGVKGLDELLGGGVAKGVILQVYGPFATGKTTFAMQVGLLNEGKVAYVDTEGGFSPERLAQMAESRNLDVEKALEKFVIFEPMDLNEQRQVIARLKNIVNEKFSLVVVDSFTAHYRAEGSREYGELSKQLQVLQWIARRKNVAVIVVNQVYYDSNSGILKPIAEHTLGYKTKDILRFERLRVGVRIAVLERHRFRPEGGMVYFKITDKGLEDVKNED	soluble
MGSDKIHHHHHHMAKPKRRYVCQACGSVTHRWQGQCVDCSEWNTLAEEAPETIFSAKHDLSSGGRRVAFVSLDQPVALPQRRKTGIAEFDRALGGGLVPGCAILMGGDPGIGKSTLLLQASAKVALSGGSAVYISGEEASDQVRLRADRLGLGKAPILLAAATSVRDILTTLGNMEPPSLVVIDSIQTMHSDQIEGAPGTVSQVRGCAFELIRYAKENGVALVLVGHVTKDGSIAGPRVLEHMVDVVMSFEGERSHQYRILRALKNRFGAVDEIGVFAMAGQGLEEVGNPSMLFLSGREQEVPGSAVFPALEGTRPVLVEIQALTVRLASGATPRRAVVGWDSGRLAMLLAVLEARCGLNFSSAEVYLNVAGGYRLTDPAADLAVAAALVSALSDRPLPSGSIWFGEISLAGEVRPVAHTPVRLKEAAKLGFSRGCGPEAGAEKVDGLRYSPLRLLPNLIDRVMGGS	not soluble
MGHHHHHHSHYGSLNPKAITISQYGEPFVVGTSRVVEIIRKLRERFGEVRIDIQTNGTLLEPEILGSEADIVMISLDAGSRESYAEITGKDFFERVVKNIEKMSEHTYTVVRTVFMPGINDEELERIAEIASQADELFLQPLSIYRENTELLKRLDVERAESLGDYLQTAYRLSEIASVRIPGCLLLNMRWFLREFEIGEL	not soluble
MAHHHHHHMGTLEAQTQGPGSMMAASHDDDTVDGLATAVRGGDRAALPRAITLVESTRPDHREQAQQLLLRLLPDSGNAHRVGITGVPGVGKSTAIEALGMHLIERGHRVAVLAVDPSSTRTGGSILGDKTRMARLAVHPNAYIRPSPTSGTLGGVTRATRETVVLLEAAGFDVILIETVGVGQSEVAVANMVDTFVLLTLARTGDQLQGIKKGVLELADIVVVNKADGEHHKEARLAARELSAAIRLIYPREALWRPPVLTMSAVEGRGLAELWDTVERHRQVLTGAGEFDARRRDQQVDWTWQLVRDAVLDRVWSNPTVRKVRSELERRVRAGELTPALAAQQILEIANLTDR	soluble
MSKHVNWSGVFPAVTTQFNADFSVNLEETHTVISNLVRDGVSGLVVCGSVGENTSLTIEEKMAVTEVAKDASGGRVPVICGIAEFTSAGAAKVAKAVERVGVDGIMVMPALVYSSKPHETAEHFRSVASGTDLPVMVYNNPPIYRNDVTPDILVSLADCENIVCFKDSSGDTRRFIDVRNQVGERFILFAGLDDVVLESVAVGAQGWISGMSNVFPKEGETIFRLARAGRFAEAMPIYEWLMPILHLDARPDLVQCIKLCEQLAGRGSALTRPPRLALRGADREHVERIMAKALASRPALPDVGL	not soluble
